The record followed here is ChEMBL document CHEMBL1134791, “2- and 3-substituted 1,4-naphthoquinone derivatives as subversive substrates of trypanothione reductase and lipoamide dehydrogenase from Trypanosoma cruzi: synthesis and correlation between redox cycling activities and in vitro cytotoxicity” (J Med Chem, 2001).

Holding throughout (assay): Vmax is the maximum velocity of the TcTR (Trypanosoma cruzi trypanothione reductase) catalyzed NADPH oxidation.
Substrate in data set [1]: CC1=C(CCC(=O)NCCCCNCCCNC(=O)CCC2=C(C)C(=O)c3cccc(O)c3C2=O)C(=O)c2c(O)cccc2C1=O
Substrate in data set [2]: CC1=C(CCC(=O)NCCCCNCCCNC(=O)CCC2=C(C)C(=O)c3ccccc3C2=O)C(=O)c2ccccc2C1=O
Substrate in data set [3]: CC1=C(CCC(=O)NCCCN2CCN(CCCNC(=O)CCC3=C(C)C(=O)c4cccc(O)c4C3=O)CC2)C(=O)c2c(O)cccc2C1=O
Substrate in data set [4]: CC1=C(CCC(=O)NCCCNCCCNC(=O)CCC2=C(C)C(=O)c3cccc(O)c3C2=O)C(=O)c2c(O)cccc2C1=O
Substrate in data set [5]: CC1=C(CCC(=O)NCCCNCCCNC(=O)CCC2=C(C)C(=O)c3ccccc3C2=O)C(=O)c2ccccc2C1=O
Substrate in data set [6]: CC1=C(CCCC(=O)NCCCCNCCCNC(=O)CCCC2=C(C)C(=O)c3cccc(O)c3C2=O)C(=O)c2c(O)cccc2C1=O
Substrate in data set [7]: CC1=C(CCCC(=O)NCCCN2CCN(CCCNC(=O)CCCC3=C(C)C(=O)c4cccc(O)c4C3=O)CC2)C(=O)c2c(O)cccc2C1=O
Substrate in data set [8]: CC1=C(CCCC(=O)NCCCN2CCN(CCCNC(=O)CCCC3=C(C)C(=O)c4ccccc4C3=O)CC2)C(=O)c2ccccc2C1=O
Substrate in data set [9]: CC1=C(CCCC(=O)NCCCNCCCNC(=O)CCCC2=C(C)C(=O)c3cccc(O)c3C2=O)C(=O)c2c(O)cccc2C1=O
Substrate in data set [10]: CC1=C(CCCC(=O)NCCCNCCCNC(=O)CCCC2=C(C)C(=O)c3ccccc3C2=O)C(=O)c2ccccc2C1=O
Substrate in data set [11]: CC1=C(CCCCC(=O)NCCCN2CCN(CCCNC(=O)CCCCC3=C(C)C(=O)c4ccccc4C3=O)CC2)C(=O)c2ccccc2C1=O
Substrate in data set [12]: CC1=C(CCCCC(=O)NCCCNCCCNC(=O)CCCCC2=C(C)C(=O)c3cccc(O)c3C2=O)C(=O)c2c(O)cccc2C1=O
Substrate in data set [13]: CC1=C(CCCCC(=O)NCCCNCCCNC(=O)CCCCC2=C(C)C(=O)c3ccccc3C2=O)C(=O)c2ccccc2C1=O
Substrate in data set [14]: CC1=C(CCCCCC(=O)NCCCCNCCCNC(=O)CCCCCC2=C(C)C(=O)c3cccc(O)c3C2=O)C(=O)c2c(O)cccc2C1=O
Substrate in data set [15]: CC1=C(CCCCCC(=O)NCCCCNCCCNC(=O)CCCCCC2=C(C)C(=O)c3ccccc3C2=O)C(=O)c2ccccc2C1=O
Substrate in data set [16]: CC1=C(CCCCCC(=O)NCCCN2CCN(CCCNC(=O)CCCCCC3=C(C)C(=O)c4cccc(O)c4C3=O)CC2)C(=O)c2c(O)cccc2C1=O
Substrate in data set [17]: CC1=C(CCCCCC(=O)NCCCN2CCN(CCCNC(=O)CCCCCC3=C(C)C(=O)c4ccccc4C3=O)CC2)C(=O)c2ccccc2C1=O
Substrate in data set [18]: CC1=C(CCCCCC(=O)NCCCNCCCNC(=O)CCCCCC2=C(C)C(=O)c3cccc(O)c3C2=O)C(=O)c2c(O)cccc2C1=O
Substrate in data set [19]: CC1=CC(=O)c2c(O)cccc2C1=O
Substrate in data set [20]: CC1=CC(=O)c2ccccc2C1=O

B1: Trypanothione reductase (Trypanosoma cruzi), P28593 (protein)
chain: MMSKIFDLVVIGAGSGGLEAAWNAATLYKKRVAVIDVQMVHGPPFFSALGGTCVNVGCVPKKLMVTGAQYMEHLRESAGFGWEFDRTTLRAEWKKLIAVKDEAVLNINKSYEEMFRDTEGLEFFLGWGSLESKNVVNVRESADPASAVKERLETENILLASGSWPHMPNIPGIEHCISSNEAFYLPEPPRRVLTVGGGFISVEFAGIFNAYKPKDGQVTLCYRGEMILRGFDHTLREELTKQLTANGIQILTKENPAKVELNADGSKSVTFESGKKMDFDLVMMAIGRSPRTKDLQLQNAGVMIKNGGVQVDEYSRTNVSNIYAIGDVTNRVMLTPVAINEAAALVDTVFGTNPRKTDHTRVASAVFSIPPIGTCGLIEEVASKRYEVVAVYLSSFTPLMHNISGSKYKTFVAKIITNHSDGTVLGVHLLGDNAPEIIQGVGICLKLNAKISDFYNTIGVHPTSAEELCSMRTPSYYYVKGEKMEKPSEASL
One may read the Vmax as the top rate of the reaction or transport when substrate is in excess. Take B1: the Vmax (µM min-1 mg-1) in [1] was 4.44. Moreover, the Vmax in data set [2] was determined as 1.83 µM/min/mg; in data set [3] it was 4.74 µM/min/mg; in data set [4], 12.4 µM/min/mg; in data set [5], 1.3 µmol/min/mg; in [6] it was 4 µM/min/mg; in data set [7] it was 2.16 µM/min/mg. Further, the Vmax in data set [8] came to 0.6 µM/min/mg; in data set [9], 4.29 µM/min/mg; in [10] it was 0.45 µM/min/mg; in [11], 1.61 µM/min/mg; in data set [12], 3.83 µM/min/mg; in [13], 0.34 µM/min/mg. For the same protein, the Vmax in data set [14] stood at 5.91 µM/min/mg; in data set [15], 1.2 µM/min/mg; in data set [16], 1.61 µM/min/mg; in data set [17], 0.47 µM/min/mg; in data set [18], 4.87 µM/min/mg; in data set [19], 0.31 µM/min/mg. Further, the Vmax in data set [20] was found to be 0.26 µM/min/mg.
